Target: Ec78 PtuA ATPase (E. coli ECONIH5)
Experiment: cryo-EM structure

Substance: Ec78 PtuA ATPase (enzyme)
- stoichiometry N: 4

— PMC12804668
